According to EP4714976A1:

T1: FGFR4 (acro) (UniProt P22455)
T1 sequence (looked up): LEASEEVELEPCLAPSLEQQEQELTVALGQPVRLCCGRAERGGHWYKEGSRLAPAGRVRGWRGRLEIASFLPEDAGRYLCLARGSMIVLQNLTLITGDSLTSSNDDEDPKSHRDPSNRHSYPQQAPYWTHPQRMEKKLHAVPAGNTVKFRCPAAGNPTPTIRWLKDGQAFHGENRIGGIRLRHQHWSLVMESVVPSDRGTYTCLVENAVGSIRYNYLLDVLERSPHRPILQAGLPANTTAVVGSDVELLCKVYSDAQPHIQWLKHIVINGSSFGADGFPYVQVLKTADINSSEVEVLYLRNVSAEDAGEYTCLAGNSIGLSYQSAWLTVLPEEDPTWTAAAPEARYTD


Experiments:
FGFR2c (acro) = FGFR2c (acro) (UniProt P21802); test: ELISA, antibody 10 µg/mL
FGFR2c (acro), sequence (P21802 22-377): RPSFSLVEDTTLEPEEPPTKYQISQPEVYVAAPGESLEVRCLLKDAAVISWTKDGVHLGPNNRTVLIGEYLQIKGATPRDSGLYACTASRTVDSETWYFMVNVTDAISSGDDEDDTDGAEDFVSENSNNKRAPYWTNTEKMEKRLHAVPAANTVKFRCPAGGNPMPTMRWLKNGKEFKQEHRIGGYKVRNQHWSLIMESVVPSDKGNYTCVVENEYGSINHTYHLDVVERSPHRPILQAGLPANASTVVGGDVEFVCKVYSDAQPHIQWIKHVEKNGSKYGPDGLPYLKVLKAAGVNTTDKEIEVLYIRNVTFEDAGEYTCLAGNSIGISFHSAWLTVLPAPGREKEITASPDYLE

FGFR1 (acro) = FGFR1 (acro) (UniProt P11362); test: ELISA, antibody 10 µg/mL
FGFR1 (acro), sequence (P11362 22-376): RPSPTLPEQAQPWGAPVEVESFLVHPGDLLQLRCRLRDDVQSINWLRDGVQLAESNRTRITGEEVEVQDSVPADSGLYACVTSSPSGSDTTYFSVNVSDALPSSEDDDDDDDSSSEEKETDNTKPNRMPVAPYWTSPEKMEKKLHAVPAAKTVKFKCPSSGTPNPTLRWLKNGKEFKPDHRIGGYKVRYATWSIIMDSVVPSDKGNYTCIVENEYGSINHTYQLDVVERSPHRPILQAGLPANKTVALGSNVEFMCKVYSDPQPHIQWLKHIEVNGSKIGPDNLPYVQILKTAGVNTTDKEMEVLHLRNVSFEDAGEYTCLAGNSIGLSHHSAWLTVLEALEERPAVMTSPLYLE

FGFR4 (acro) = target: T1, FGFR4 (acro); test: ELISA, antibody 10 µg/mL
[1] = target: recombinant mouse FGFR2b (mouse) (UniProt P21803); test: BLI, antibody on AHC2 sensor
recombinant mouse FGFR2b (mouse), sequence (P21803 22-377): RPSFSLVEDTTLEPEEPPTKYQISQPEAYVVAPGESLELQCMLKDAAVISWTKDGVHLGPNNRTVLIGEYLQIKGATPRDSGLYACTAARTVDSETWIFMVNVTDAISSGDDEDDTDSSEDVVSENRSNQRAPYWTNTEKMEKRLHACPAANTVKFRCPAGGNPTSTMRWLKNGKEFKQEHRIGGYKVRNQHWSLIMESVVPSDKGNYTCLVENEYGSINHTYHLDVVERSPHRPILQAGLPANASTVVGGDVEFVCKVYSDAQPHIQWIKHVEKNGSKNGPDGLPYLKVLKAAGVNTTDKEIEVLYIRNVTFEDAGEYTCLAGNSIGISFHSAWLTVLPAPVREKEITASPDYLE

[2] = target: recombinant mouse FGFR2b (mouse) (UniProt P21803); test: ELISA, antibody 1ug/mL

Row | OD (450 nm) value (FGFR2c (acro)) | OD (450 nm) value (FGFR1 (acro)) | OD (450 nm) value (FGFR4 (acro)) | Kd [1] | koff [1] | kon [1] | OD (450 nm) value [2] | Binder
1 | 0.176 | 0.217 | 0.232 | 42.2 nM | 0.00128 s⁻¹ | 30400 M⁻¹ s⁻¹ | 2.76 | 1G6 scFv-Fc (Fc fusion) EIQLQQSGAELVKPGASVKMSCKASGYTFRYYNMHWVKRTPGQGLEWIGLIYPDNGDTSYNQKFKGKATLTADTSSSTAYMQLSSLTSEDSAVYYCARGGLDYWGQGTSLTVSSGGGGSGGGGSGGGGSNIVMTQSHKFMSTSVGDRVSITCKASQDVNTDVAWYQQKPGQSPKLLIYSASYRYTGVPTRFTGSGSGTDFTFTISGVQAEDLADYYCQQHYNTPYTFGGGTKLELKESKYGPPCPPCPAPEAAGGPSVFLFPPKPKDTLMISRTPEVTCVVVDVSQEDPEVQFNWYVDGVEVHNAKTKPREEQFNSTYRVVSVLTVLHQDWLNGKEYKCKVSNKGLPSSIEKTISKAKGQPREPQVYTLPPSQEEMTKNQVSLTCLVKGFYPSDIAVEWESNGQPENNYKTTPPVLDSDGSFFLYSKLTVDKSRWQEGNVFSCSVMHEALHNHYTQKSLSLSLG
2 | 0.134 | 0.143 |  | 99.8 nM | 0.0054 s⁻¹ | 54200 M⁻¹ s⁻¹ | 1.81 | 1A3 scFv-Fc (Fc fusion) QVQLQQPGAELVKPGASVKMSCKASGYTFASYNLHWVKQTPGQGLEWIGLIYPENGDTSYNQKFKGKATLTADKSSSTAYIQLSSLTSEDSAVYFCARGGFDYWGQGTTLTVSQGGGGSGGGGSGGGGSDIQMTQSPASLSASVGETVTITCGASENIYGALNWYQRKQGKSPQLLIYGATNLADGMSSRFSGSGSGRQYSLKISSLHPDDVATYYCQNVLSTPYTFGGGTKLEIKESKYGPPCPPCPAPEAAGGPSVFLFPPKPKDTLMISRTPEVTCVVVDVSQEDPEVQFNWYVDGVEVHNAKTKPREEQFNSTYRVVSVLTVLHQDWLNGKEYKCKVSNKGLPSSIEKTISKAKGQPREPQVYTLPPSQEEMTKNQVSLTCLVKGFYPSDIAVEWESNGQPENNYKTTPPVLDSDGSFFLYSKLTVDKSRWQEGNVFSCSVMHEALHNHYTQKSLSLSLG
3 | 0.199 | 0.19 | 0.265 | 52.7 nM | 0.00214 s⁻¹ | 40500 M⁻¹ s⁻¹ | 3.06 | 3E3 scFv-Fc (Fc fusion) QVQLQQPGAVLVKPGASVRMSCKASGYTFPYYNVHWVKRTPGQGLEWIGLIYPDNGDTSYNQKFTGKATLTADTSSSTAYMQLSSLTSEDSAVYYCARGGLDYWGQGTTLTVSAGGGGSGGGGSGGGGSDVQITQSPASLSASVGETVTITCGASENIYGALNWYQRKQGKSPQLLIYGATNLADGMSSRFSGSGSGRQYSLKISSLHPDDVATYYCQNVLSTPYTFGGGTKLEIKESKYGPPCPPCPAPEAAGGPSVFLFPPKPKDTLMISRTPEVTCVVVDVSQEDPEVQFNWYVDGVEVHNAKTKPREEQFNSTYRVVSVLTVLHQDWLNGKEYKCKVSNKGLPSSIEKTISKAKGQPREPQVYTLPPSQEEMTKNQVSLTCLVKGFYPSDIAVEWESNGQPENNYKTTPPVLDSDGSFFLYSKLTVDKSRWQEGNVFSCSVMHEALHNHYTQKSLSLSLG
